Data: publication PMC4222252

How the values were obtained:
[1] = target: His6-tagged HIV-1 integrase E10R/E13R (HIV-1)
[2] = target: His6-tagged HIV-1 integrase E10R/E13R/K42E (HIV-1)
[3] = target: His6-tagged HIV-1 integrase E10R/E13R (HIV-1); test: pull-down
[4] = target: His6-tagged HIV-1 integrase E10R/E13R/K42E (HIV-1); test: pull-down
[5] = target: His6-tagged HIV-1 integrase K42E (HIV-1); test: pull-down

Substance | concerted integration activity in vitro, percent of WT IN with WT LEDGF/p75 [1] | concerted integration activity in vitro, percent of WT IN with WT LEDGF/p75 [2] | percent of the WT LEDGF/p75 bound by WT IN [3] | percent of the WT LEDGF/p75 bound by WT IN [4] | percent of the WT LEDGF/p75 bound by WT IN [5]
LEDGF/p75 K401E/K402E/R405E (from UniProt O75475 1-530) (natural protein) | 55% | 78% | 11% | 15% | 42%
lens epithelium-derived growth factor (LEDGF)/p75, wild type (from UniProt O75475 1-530) (natural protein) | 53% | 18% | – | – | –
